In patent US20260078185A1 (published 2026):
Where two headings read alike, the source gives them in different places.

T1: mouse VISTA recombinant protein (Sino Biological Inc., Cat. #51550-M08H), biotinylated (mouse, UniProt Q9D659 33-191, biotinylated using EZ-LINK NHS-PEG4 biotin)
T1 chain: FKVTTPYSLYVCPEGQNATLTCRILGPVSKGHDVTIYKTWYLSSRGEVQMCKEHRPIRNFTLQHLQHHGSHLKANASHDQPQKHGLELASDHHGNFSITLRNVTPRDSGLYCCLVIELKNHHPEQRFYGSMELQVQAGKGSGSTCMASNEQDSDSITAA


Columns and labels:
[1] = target: T2, Human VISTA recombinant protein (Sino Biological Inc., Cat. #13482-H08H), biotinylated (UniProt Q9H7M9 33-194, biotinylated using EZ-LINK NHS-PEG4 biotin); test: Octet BLI
[2] = target: T1, mouse VISTA recombinant protein (Sino …); test: Octet (BLI)
[3] = target: T2, Human VISTA recombinant protein (Sino …); test: Octet BLI; remark: listed apart in the source
[4] = target: T1, mouse VISTA recombinant protein (Sino …); test: Octet (BLI)
[5] = target: T2, Human VISTA recombinant protein (Sino …); test: Octet BLI; remark: listed apart in the source

T2 sequence (Q9H7M9 33-194): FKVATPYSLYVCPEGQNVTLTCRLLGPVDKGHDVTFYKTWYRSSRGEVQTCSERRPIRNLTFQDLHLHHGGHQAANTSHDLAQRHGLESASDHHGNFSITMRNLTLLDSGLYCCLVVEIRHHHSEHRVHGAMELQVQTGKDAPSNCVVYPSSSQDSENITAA

Kd [1] [nM]	Kd [2] [nM]	Kd [3] [nM]	Kd [4] [nM]	Kd [5] [nM]	Binder
3.54	–	–	–	–	20E4-VH1/VL1 (antibody, V domains shown) VH: QVQLVQSGAEVKKPGASVKVSCKASGYTFSSSWVEWVRQAPGQGLEWMGEIFPGSGSTHYNEKFKGRVTMTRDTSISTAYMELSRLRSDDTAVYYCARRPPGWFFDVWGQGTTVTVSS VL: DIQMTQSPSSLSASVGDRVTITCKASQDVSTDVAWYQQKPGKAPKLLIYSASYRYTGVPSRFSGSGSGTDFTLTISSLQPEDFATYYCQQHYSTPWTFGGGTKVEIK
6.22	–	–	–	–	20E4-VH4/VL4 (antibody, V domains shown) VH: QVQLVQSGAEVKKPGASVKVSCKASGYTFTSSWVEWVRQAPGQGLEWMGEIFPGSGSTHYNEKFKGRVTMTRDTSTSTVYMELSSLRSEDTAVYYCARRPPGWFFDVWGQGTMVTVSS VL: DIVMTQSPDSLAVSLGERATINCKASQDVSTDVAWYQQKPGQPPKLLIYSASYRYTGVPDRFSGSGSGTDFTLTISSLQAEDVAVYYCQQHYSTPWTFGGGTKVEIK
4.37	–	–	–	–	20E4 parental anti-VISTA antibody (VH0/VL0) (antibody, V domains shown) VH: QVQLQQSGAELMKPGASVKISCKATGYTFSSSWVEWVRQRPGHGLEWIGEIFPGSGSTHYNEKFKGKATFTADTSSNTAYLQLSSLTSDDSAVYYCARRPPGWFFDVWGAGTTVTVSS VL: DIVMTQSHKFMSTSVGDRVSITCKASQDVSTDVAWYQQKPGQSPKLLIYSASYRYTGVPDRFTGSGSGTDFTFTISSVQAEDLAVYYCQQHYSTPWTFGGGTKLEIK
3.09	–	–	–	–	20E4-VH3/VL3 (antibody, V domains shown) VH: QVQLVQSGAEVMKPGASVKISCKATGYTFSSSWVEWVRQRPGQGLEWIGEIFPGSGSTHYNEKFKGKATMTADTSISTAYMELSRLRSDDTAVYYCARRPPGWFFDVWGAGTTVTVSS VL: DIVMTQSPSSLSASVGDRVTITCKASQDVSTDVAWYQQKPGKAPKLLIYSASYRYTGVPSRFSGSGSGTDFTFTISSVQPEDLAVYYCQQHYSTPWTFGGGTKLEIK
–	12.2	9.45	5.03	8.65	9F9 parental anti-VISTA antibody (VH0/VL0) (antibody, V domains shown) VH: QVQFQQSGAELARPGASVKLSCKASGYTFTGYWMQWVKQRPGQGLEWIGAIYPGDGDTRYSQKFKGKVTLTADKSSSTAYMQLSSLASEDSAVYYCARRDYGAWFAYWGQGTLVTVSA VL: DIKVTQSPSSMYASLGERVTITCKASQDINSYLSWFQQKPGKSPKTLIYRANRLVDGVPSRFSGSGSGQDYSLTISSLDYEDMGIYYCLQYDEFPYTFGGGTKLEIK
–	–	–	336	36.6	9F9-VH8/VL8 (antibody, V domains shown) VH: QVQFVQSGAEVKKPGASVKVSCKASGYTFTGYWMQWVKQAPGQGLEWIGAIYPGDGDTRYSQKFKGKVTLTADKSTSTAYMELSSLRSEDTAVYYCARRDYGAWFAYWGQGTLVTVSS VL: DIKVTQSPSSLSASVGDRVTITCKASQDINSYLSWYQQKPEKAPKTLIYRANRLVDGVPSRFSGSGSGTDFTLTISSLQPEDFATYYCLQYDEFPYTFGQGTKVEIK

Second part, the binder before the results:

Binder	Kd [1] [nM]	Kd [2] [nM]	Kd [3] [nM]	Kd [4] [nM]	Kd [5] [nM]
9F9 humanized anti-VISTA antibody VH15/VL15 (antibody, V domains shown) VH: QVQLVQSGAEVMKPGASVKLSCKASGYTFTGYWMQWVKQRPGQGLEWIGAIYPGDGDTRYSQKFKGKATMTADTSISTAYMELSRLRSDDSAVYYCARRDYGAWFAYWGAGTTVTVSS VL: DIVMTQSPSSLSASVGERVTITCKASQDINSYLSWFQQKPGKAPKTLIYRANRLVDGVPSRFSGSGSGTDFTFTISSVQPEDLAIYYCLQYDEFPYTFGGGTKLEIK	–	20.8	24.4	–	–
9F9 humanized anti-VISTA antibody VH9/VL9 (antibody, V domains shown) VH: QVQFVQSGAEVKKPGSSVKVSCKASGYTFSGYWMQWVKQAPGQGLEWIGAIYPGDGDTRYSQKFKGKVTLTADESTSTAYMELSSLRSEDTAVYYCARRDYGAWFAYWGQGTLVTVSS VL: DIKVTQSPSSLSASVGDRVTITCKASQDINSYLSWYQQKPGKAPKTLIYRANRLVDGVPSRFSGSGSGQDYTFTISSLQPEDIATYYCLQYDEFPYTFGQGTKVEIK	–	23.9	26.6	607	37.7
9F9 humanized anti-VISTA antibody VH7/VL7 (antibody, V domains shown) VH: QVQFVQSGAEVKKPGASVKVSCKASGYTFTGYWMQWVKQAPGQRLEWIGAIYPGDGDTRYSQKFKGKVTLTADTSASTAYMELSSLRSEDTAVYYCARRDYGAWFAYWGQGTLVTVSS VL: DIKVTQSPSSLSASVGDRVTITCKASQDINSYLSWYQQKPGKAPKTLIYRANRLVDGVPSRFSGSGSGQEYTLTISSLQPEDFATYYCLQYDEFPYTFGQGTKVEIK	–	–	–	866	56.7
9F9 humanized anti-VISTA antibody VH14/VL15 (antibody, V domains shown) VH: QVQLVQSGAEVMKPGASVKISCKASGYTFTGYWMQWVRQRPGQGLEWIGAIYPGDGDTRYSQKFKGKATMTADTSISTAYMELSRLRSDDTAVYYCARRDYGAWFAYWGAGTTVTVSS VL: DIVMTQSPSSLSASVGERVTITCKASQDINSYLSWFQQKPGKAPKTLIYRANRLVDGVPSRFSGSGSGTDFTFTISSVQPEDLAIYYCLQYDEFPYTFGGGTKLEIK	–	17.5	20.3	–	–
